Laboratory results: PMC4520625

Key:
[1] = target: full-length human galectin-3 (human) (UniProt P17931); assay: ITC
[2] = target: galectin-3 carbohydrate recognition domain (CRD) obtained by proteolytic truncation (human); assay: ITC

full-length human galectin-3 (human), sequence (P17931 whole entry, the tested form may be a part): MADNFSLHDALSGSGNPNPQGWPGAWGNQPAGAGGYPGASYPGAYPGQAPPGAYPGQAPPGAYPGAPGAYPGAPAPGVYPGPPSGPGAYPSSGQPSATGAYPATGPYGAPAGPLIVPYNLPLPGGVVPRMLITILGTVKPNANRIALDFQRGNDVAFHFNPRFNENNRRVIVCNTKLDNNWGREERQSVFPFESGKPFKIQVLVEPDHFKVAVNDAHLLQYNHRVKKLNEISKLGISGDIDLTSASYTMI

dH [1]: -1.33 kcal/mol | dH [2]: -4.11 kcal/mol
Substance: MUC1-Ser5 glycopeptide carrying the TF antigen
